Consider 131 substances from the supplement of paper PMC12042874.

± gives the uncertainty stated by the source.

The data set can be described thus: amyloid nucleation score (Sup35N fusion, yeast selection) (log enrichment); library NNK3; higher = more nucleation; inactive = no reads after selection. The gist of the method:
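Psi-negative yeast expressed Sup35N fused to peptides of 20 random codons. They were induced 24 hours with 100 μM copper sulfate, grown 7 days at 30°C without adenine and uracil, and their plasmid inserts from input and output were Illumina-sequenced. The nucleation score is the DiMSum log enrichment of output over input reads, centred on the mode score of non-aggregating sequences. Sequences with under 100 input reads were excluded.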
For the substance FLCQFLRFFCIN, the amyloid nucleation score turned out to be 1.04 ± 0.13. As for FLCWIYDECKGVRCVRLGAI, the amyloid nucleation score entry was “inactive”.

As to FLDSSVW, the amyloid nucleation score result was “inactive”. On to FLFILPDNGPRWCSYTVGNV, for which the amyloid nucleation score result was “inactive”. FLFLLWCNMMPEMYVIAMNI: the amyloid nucleation score entry is “inactive”.

Consider FLFTFKIHPLGGMFGVLILS, for which the amyloid nucleation score result was “inactive”.

Turning to FLGGRTLTSLPE, the amyloid nucleation score result was “inactive”. Under FLGIDAPDWSMVSKAIGRMG stands “inactive”; under FLGVNNNSVVNLYELCD, “inactive”. In the case of FLIISCS, the amyloid nucleation score entry is “inactive”.

Regarding FLISIWGGIGNDNVSVVGVG, the amyloid nucleation score entry was “inactive”. For FLLERLSV, the amyloid nucleation score entry is “inactive”. As for FLLSCK, the amyloid nucleation score result was “inactive”. Regarding FLLSVMRELSKYYYIIFSTS, the amyloid nucleation score result is “inactive”. For the substance FLLVFC, the amyloid nucleation score was -0.021 ± 0.3.

As for FLLVYWLVLVFPIVGNLMPE, the amyloid nucleation score entry was “inactive”.

In the case of FLQECRDCQGTVRNKSSAP, the amyloid nucleation score entry was “inactive”. Regarding FLRCTRPPTASENIFRDINY, the amyloid nucleation score entry is “inactive”. Consider FLRYGCMHYLGRMGLY, for which the amyloid nucleation score was -0.079 ± 0.34.

Consider FLSEIGADTTKSYWDTIPRF, for which the amyloid nucleation score was -1.2 ± 2.5. FLSGVTWHAYMIHSVFMDRC returned an amyloid nucleation score of 0.881 ± 0.21. FLVNEEPVQLHGAPVRYFKF showed an amyloid nucleation score of -0.504 ± 1.1. For FLYRDDDHSYVSESDLNSCS, the amyloid nucleation score entry was “inactive”. FMCNNRSILGICIFYDLRRN came in with an amyloid nucleation score of 2.64 ± 0.081. For the substance FMGADVAQRMFYKSANGCEW, the amyloid nucleation score entry was “inactive”. In the case of FMGQFIYLSSRCNSSVDSEV, the amyloid nucleation score result was “inactive”. Under FMGTRTKLMALVYQEELSRS stands “inactive”; under FMKEVSGRQDLLRPIMIHNA, “inactive”; under FMLWYSPKLFG, “inactive”.

FMVDTHFGNAFCFYMYCC registered an amyloid nucleation score of 2.26 ± 0.051. Under FMVMRVPRCPVDCNVPGGIN stands “inactive”; under FMYSFDLWYKRLNCLMMLVF, “inactive”. As for FNALSWSVDFLWYARTTCVD, the amyloid nucleation score result is “inactive”.

In turn, FNAYNIFVKVPNVMPSS came in with an amyloid nucleation score of 2.19 ± 0.09. FNCSARNYGTRFFCLMRAGV returned an amyloid nucleation score of -0.654 ± 1.4. For FNDNVVVVSDNVVRRITSKS, the amyloid nucleation score entry is “inactive”. Under FNIGFSSDSYAPWLFMICEM stands “inactive”; under FNILSLSRTSNYPRHCLFRL, “inactive”; under FNMCLASQAVIADLWVVFSW, -0.054 ± 1.3. With FNSKRW, the amyloid nucleation score result was “inactive”. Turning to FNVVMSRYIYYCVMGVIRMS, the amyloid nucleation score entry is “inactive”.

Consider FPILS, for which the amyloid nucleation score entry was “inactive”. Turning to FPKLWLFNYYVNRRIRSSSF, the amyloid nucleation score result is “inactive”.

The substance FPSVIINLGISFFLSSELIV had an amyloid nucleation score of 1.08 ± 0.11. FPWFTEASPPEMKLDK had an amyloid nucleation score of 0.816 ± 0.23. Under FQARTPACPYVCSS stands “inactive”; under FQFCS, “inactive”. Turning to FQSDRVCFIGGWTSNRVGWM, the amyloid nucleation score was 0.699 ± 0.28. Take FQYKVSFPDRRASQKRWPLP: the amyloid nucleation score result is “inactive”.

With FRASVPPEVLPKFARVGMNA, the amyloid nucleation score entry was “inactive”. As to FRDCMVINDMVVWDFCTSCA, the amyloid nucleation score entry was “inactive”. Turning to FRITNWLSLYDKTEISHASI, the amyloid nucleation score entry was “inactive”. For FRLILM, the amyloid nucleation score result is “inactive”. With FRLVGNIRTFYGYR, the amyloid nucleation score entry is “inactive”. FRMNSLRVSLMESVCSSHT returned an amyloid nucleation score of 1.1 ± 0.11. The substance FRPGLYSYMPSC had an amyloid nucleation score of -0.451 ± 0.88. As to FRPLFSESHYPASLTGTGHN, the amyloid nucleation score result was “inactive”.

Regarding FRRYRRCDLGLLSSMRPSAH, the amyloid nucleation score entry was “inactive”. Regarding FRVLDRSKKVNYRSFLYLIR, the amyloid nucleation score entry was “inactive”. In the case of FRVSVIFIFGCHMFGVLMTP it was “inactive”.

Consider FRVTY, for which the amyloid nucleation score result was “inactive”. Under FRYNDFMRD stands “inactive”. On to FRYPIYGFFGMTGPTNSLTA, for which the amyloid nucleation score result was “inactive”. In turn, FRYVVHTESYTIESVEVIR registered an amyloid nucleation score of 1.22 ± 0.094. On to FSAPL, for which the amyloid nucleation score result was “inactive”. FSCCITNPTYTYCWEMVGVS: the amyloid nucleation score result was “inactive”.

Take FSCDHLGWLVVSVCSGLRWL: the amyloid nucleation score result is “inactive”. As for FSFPCRTVAWFWYDFHFIGL, the amyloid nucleation score result was “inactive”. Consider FSFYFQDNTIKRWEAIED, for which the amyloid nucleation score entry was “inactive”. FSIRDSTTLKVPEECLSTWI: the amyloid nucleation score result is “inactive”. Consider FSKFQTYVSHMVVYGIMSGN, for which the amyloid nucleation score entry is “inactive”. As to FSKIHI, the amyloid nucleation score entry was “inactive”. As for FSLDVDDGVFS, the amyloid nucleation score entry was “inactive”.

Regarding FSLRVGMKVHISKIRLGCCK, the amyloid nucleation score result was “inactive”. The substance FSLTLCWHWSWVQCAGVPWG registered an amyloid nucleation score of 2.05 ± 0.097. In the case of FSMAFYMYG it was 0.163 ± 0.25; in that of FSMWCVSCN, “inactive”. For FSNGMVLFF, the amyloid nucleation score entry was “inactive”.

As for FSNVRDFGFGKDY, the amyloid nucleation score result is “inactive”. With FSPCISDCGVDESIKVLRKM, the amyloid nucleation score result was “inactive”. In the case of FSPTIGTTWDTLMF it was “inactive”; in that of FSRFSNAFPKNCWVLLVENS, “inactive”. FSSNTT: the amyloid nucleation score result is “inactive”. For the substance FSSSPR, the amyloid nucleation score entry is “inactive”. On to FSVMYRWRYFGDSAFWISVF, for which the amyloid nucleation score entry was “inactive”. The substance FSVSASEKHFFSCVMLYCVS had an amyloid nucleation score of 0.935 ± 0.1. In the case of FSYCDGRLLSSNRYYSESLY it was “inactive”; in that of FSYCSLWGKCVCDIFTNGQL, 2.81 ± 0.051. With FTAQRGSTCHPYVRKHEYI, the amyloid nucleation score result was “inactive”. For FTAWTLLLSGMFVIASANMA, the amyloid nucleation score result is “inactive”. FTCDTMKYSSRYSLFYVRVS: the amyloid nucleation score turned out to be 0.205 ± 0.77. In the case of FTNNI, the amyloid nucleation score entry is “inactive”. Regarding FTPDVRWLNVLNSHNGVIEV, the amyloid nucleation score result is “inactive”. Regarding FTYGMSSVFVGHF, the amyloid nucleation score entry was “inactive”. FVAVVSRDISNYSRGRSEKR: the amyloid nucleation score result was “inactive”. For the substance FVERTRKRVNVRRNRHVTET, the amyloid nucleation score entry is “inactive”. FVFCLEGTGGVFDFGFGIGI: the amyloid nucleation score result is “inactive”.

In the case of FVLHNS, the amyloid nucleation score entry is “inactive”.

In the case of FVLIIYLLACSEMLFVFKEV, the amyloid nucleation score result was “inactive”. In the case of FVLRTNWGGISVYIYDVCSC it was -0.238 ± 1.1; in that of FVNCLCKRARYYSSGGLSSP, -0.512 ± 1.4; in that of FVSYRESKKDMQACCALCRS, 0.965 ± 0.11. Consider FVVVHLSVKSIVPAFVSWDR, for which the amyloid nucleation score was -0.36 ± 0.84.

On to FVVYL, for which the amyloid nucleation score entry was “inactive”. FVWNMFSASLIKI: the amyloid nucleation score result is “inactive”. In the case of FVYWNLSAYVRILVVDGNGR, the amyloid nucleation score entry is “inactive”. In the case of FWCIGEIRCTYMWRSQCFCV it was “inactive”.

For FWGFAFPFTSHGGPKNLEES, the amyloid nucleation score entry is “inactive”. Take FWGFPRKSYADMMGSTRGSA: the amyloid nucleation score entry is “inactive”. Consider FWGMLVEYLVNSQCYIKFE, for which the amyloid nucleation score result is “inactive”. Under FWGWLARTNLKILSILFNLI stands “inactive”. Take FWLRAVSLSWLMIEKKYMLR: the amyloid nucleation score entry was “inactive”. Take FWMILMDMLFMRLGSL: the amyloid nucleation score entry is “inactive”. With FWMRFKHDW, the amyloid nucleation score is 1.29 ± 0.16. As to FWSSFAMRAYSVIWYTLSTC, the amyloid nucleation score result is “inactive”. As for FWYFYSKEFTRQDLVDLNVM, the amyloid nucleation score entry is “inactive”. In the case of FYCLHSMLKMGEDVRAMNLD it was “inactive”. In the case of FYDAWRIFLSYFRLSLLTNV, the amyloid nucleation score result was “inactive”.

On to FYFYSVCYYGRWIKKPCHLR, for which the amyloid nucleation score entry was “inactive”. FYGECKSVSGNCLTMNGRYT gave an amyloid nucleation score of -0.561 ± 0.59.

In the case of FYIKVVNPCIPYT, the amyloid nucleation score entry was “inactive”. FYKVYSVRLEHFCKCGIECN: the amyloid nucleation score entry was “inactive”.

Regarding FYNRPKWLFVLGPENILCDS, the amyloid nucleation score result was “inactive”. In turn, FYRSFSPSYNLYMYGIYDR showed an amyloid nucleation score of 2.77 ± 0.067. In the case of FYSCKSTAGCSTTIEGARNY, the amyloid nucleation score entry is “inactive”. As for FYSTAMCGED, the amyloid nucleation score result is “inactive”. Under FYTWLPCVYSN stands -0.335 ± 1.7; under FYYDRVTLRGNTNLGDLMHG, 1.69 ± 0.076. In the case of FYYIVIFSNHWPSCILCRGR it was 0.792 ± 0.28; in that of FYYSWSVFCICMYR, “inactive”; in that of GAGCNVVAAATARSRDGDWS, 0.212 ± 0.93.
